# Measurements from US20200216536A1 (published 2020).
# Changes are numbered by the printed parent chain. Names may count otherwise. “And” between values parts separate entries of the source, which are not always exact repeats. Identical values can stand only once.
# B1: canine IgG.B Fc (CH2-CH3) variant L252M (Fc fusion)
# chain: APEMLGGPSVFIFPPKPKDTLMIARTPEVTCVVVDLDPEDPEVQISWFVDGKQMQTAKTQPREEQFNGTYRVVSVLPIGHQDWLKGKQFTCKVNNKALPSPIERTISKARGQAHQPSVYVLPPSREELSKNTVSLTCLIKDFFPPDIDVEWQSNGQQEPESKYRTTPPQLDEDGSYFLYSKLSVDKSRWQRGDTFICAVMHEALHNHYTQESLSHSPGK
# B2: canine IgG.B Fc (CH2-CH3) variant L252Y (Fc fusion)
# chain: B1 chain with M22Y
# B3: canine IgG.B Fc (CH2-CH3) variant G309P (Fc fusion)
# chain: B1 chain with M22L, G79P
# B4: canine IgG.B Fc (CH2-CH3) variant Q311V (Fc fusion)
# chain: B1 chain with M22L, Q81V
# B5: canine IgG.B Fc (CH2-CH3) variant D378V (Fc fusion)
# chain: B1 chain with M22L, D148V
# B6: canine IgG.B Fc (CH2-CH3) variant T250Q (Fc fusion)
# chain: B1 chain with T20Q, M22L
# B7: canine IgG.B Fc (CH2-CH3) variant T250E (Fc fusion)
# chain: B1 chain with T20E, M22L
# B8: canine IgG.B Fc (CH2-CH3) variant A254T (Fc fusion)
# chain: B1 chain with M22L, A24T
# B9: canine IgG.B Fc (CH2-CH3) variant E380A (Fc fusion)
# chain: B1 chain with M22L, E150A
# B10: canine IgG.B Fc (CH2-CH3) variant N434R (Fc fusion)
# chain: B1 chain with M22L, N206R
# B11: canine IgG.B Fc (CH2-CH3) variant N434H (Fc fusion)
# chain: B1 chain with M22L, N206H
# B12: canine IgG.B Fc (CH2-CH3) YTE variant (L252Y/A254T/T256E) (Fc fusion)
# chain: B1 chain with M22Y, A24T, T26E
# B13: canine IgG.B Fc (CH2-CH3) variant N434W (Fc fusion)
# chain: B1 chain with M22L, N206W
# B14: canine IgG.B Fc (CH2-CH3) variant N434Y (Fc fusion)
# chain: B1 chain with M22L, N206Y
# B15: canine IgG.B Fc (CH2-CH3) variant M428A (Fc fusion)
# chain: B1 chain with M22L, M200A
# B16: canine IgG.B Fc (CH2-CH3) variant Y436A (Fc fusion)
# chain: B1 chain with M22L, Y208A
# B17: canine IgG.B Fc (CH2-CH3) variant T256A (Fc fusion)
# chain: B1 chain with M22L, T26A
# B18: canine IgG.B Fc (CH2-CH3) variant P307A (Fc fusion)
# chain: B1 chain with M22L, P77A
# B19: canine IgG.B Fc (CH2-CH3) variant K315A (Fc fusion)
# chain: B1 chain with M22L, K85A
# B20: canine IgG.B Fc (CH2-CH3) variant H433A (Fc fusion)
# chain: B1 chain with M22L, H205A
# B21: canine IgG.B Fc (CH2-CH3) variant D378A (Fc fusion)
# chain: B1 chain with M22L, D148A
# B22: canine IgG.B Fc (CH2-CH3) variant T250A (Fc fusion)
# chain: B1 chain with T20A, M22L
# B23: canine IgG.B Fc (CH2-CH3) variant I308A (Fc fusion)
# chain: B1 chain with M22L, I78A
# B24: canine IgG.B Fc (CH2-CH3) variant Q311A (Fc fusion)
# chain: B1 chain with M22L, Q81A
# B25: canine IgG.B Fc (CH2-CH3) variant N434A (Fc fusion)
# chain: B1 chain with M22L, N206A
# B26: canine IgG.B Fc (CH2-CH3) variant Q285A (Fc fusion)
# chain: B1 chain with M22L, Q55A
# B27: canine IgG.B Fc (CH2-CH3) variant T286A (Fc fusion)
# chain: B1 chain with M22L, T56A
# B28: canine IgG.B Fc (CH2-CH3) variant G309A (Fc fusion)
# chain: B1 chain with M22L, G79A
# B29: canine IgG.B Fc (CH2-CH3) variant L252A (Fc fusion)
# chain: B1 chain with M22A
# B30: canine IgG.B Fc (CH2-CH3) variant A254S (Fc fusion)
# chain: B1 chain with M22L, A24S
# B31: canine IgG.B Fc (CH2-CH3) variant N434S (Fc fusion)
# chain: B1 chain with M22L, N206S
# Target: T1, canine FcRn (UniProtKB-E2ROL6 [FcRn] and UniProtKB-E2RN10 [canine beta-2-microglobulin]) (canine)
# T1 construct: Soluble analyte injected in SPR
# Test: SPR Biacore 8K, pH 5.5, Fc captured on BSA via SASA tag, FcRn 200 nM
Kd,koff,kon,Binder
869 nM and 774 nM,0.168 s⁻¹ and 0.169 s⁻¹,193000 M⁻¹ s⁻¹ and 218000 M⁻¹ s⁻¹,B1
98.7 nM and 114 nM,0.0397 s⁻¹ and 0.041 s⁻¹,402000 M⁻¹ s⁻¹ and 358000 M⁻¹ s⁻¹,B2

# Target: T1, canine FcRn (UniProtKB-E2ROL6 [FcRn] …)
# Test: as above
# Remark: another data set of the same source
Kd,koff,kon,Binder
635 nM and 434 nM and 637 nM and 718 nM,0.239 s⁻¹ and 0.242 s⁻¹ and 0.132 s⁻¹ and 0.145 s⁻¹,377000 M⁻¹ s⁻¹ and 558000 M⁻¹ s⁻¹ and 207000 M⁻¹ s⁻¹ and 202000 M⁻¹ s⁻¹,B3

# Target: T1, canine FcRn (UniProtKB-E2ROL6 [FcRn] …)
# Test: as above
# Remark: another data set of the same source
Kd,koff,kon,Binder
372 nM and 439 nM,0.566 s⁻¹ and 0.696 s⁻¹,1.52e+06 M⁻¹ s⁻¹ and 1.59e+06 M⁻¹ s⁻¹,B4

# Target: T1, canine FcRn (UniProtKB-E2ROL6 [FcRn] …)
# Test: as above
# Remark: another data set of the same source
Kd,koff,kon,Binder
693 nM and 873 nM,0.159 s⁻¹ and 0.16 s⁻¹,229000 M⁻¹ s⁻¹ and 184000 M⁻¹ s⁻¹,B5

# Target: T1, canine FcRn (UniProtKB-E2ROL6 [FcRn] …)
# Test: as above
# Remark: another data set of the same source
Kd,koff,kon,Binder
2590 nM and 2840 nM,0.258 s⁻¹ and 0.268 s⁻¹,99600 M⁻¹ s⁻¹ and 94300 M⁻¹ s⁻¹,B6
2480 nM and 1660 nM,0.284 s⁻¹ and 0.287 s⁻¹,114000 M⁻¹ s⁻¹ and 172000 M⁻¹ s⁻¹,B7

# Target: T1, canine FcRn (UniProtKB-E2ROL6 [FcRn] …)
# Test: as above
# Remark: another data set of the same source
Kd,koff,kon,Binder
2290 nM and 1340 nM,0.375 s⁻¹ and 0.433 s⁻¹,163000 M⁻¹ s⁻¹ and 323000 M⁻¹ s⁻¹,B8

# Target: T1, canine FcRn (UniProtKB-E2ROL6 [FcRn] …)
# Test: as above
# Remark: another data set of the same source
Kd,koff,kon,Binder
1320 nM and 1570 nM,0.223 s⁻¹ and 0.239 s⁻¹,168000 M⁻¹ s⁻¹ and 152000 M⁻¹ s⁻¹,B9

# Target: T1, canine FcRn (UniProtKB-E2ROL6 [FcRn] …)
# Test: SPR Biacore 8K, pH 5.5, Fc captured on BSA via SASA tag, FcRn 100-800 nM
Kd [nM],koff [s⁻¹],kon [M⁻¹ s⁻¹],Binder
182,0.0801,440000,B10
247,0.102,411000,B11
184,0.046,250000,B12
101,0.045,446000,B13
29.1,0.0151,520000,B14
173,0.0476,275000,B2

# Target: T1, canine FcRn (UniProtKB-E2ROL6 [FcRn] …)
# Test: SPR Biacore 8K, pH 5.5, Fc captured on BSA via SASA tag, FcRn 400 nM
Kd,koff,kon,Binder
618 nM and 747 nM,0.369 s⁻¹ and 0.18 s⁻¹,598000 M⁻¹ s⁻¹ and 241000 M⁻¹ s⁻¹,B9
723 nM and 1670 nM,,234000 M⁻¹ s⁻¹ and 318000 M⁻¹ s⁻¹,B15
393 nM and 876 nM,0.407 s⁻¹ and 0.213 s⁻¹,,B16
447 nM and 298 nM,,,B17
325 nM and 338 nM,,,B18
422 nM and 548 nM,,,B19
266 nM and 359 nM,0.229 s⁻¹ and 0.0997 s⁻¹,,B20
673 nM and 592 nM,0.183 s⁻¹ and 0.181 s⁻¹,272000 M⁻¹ s⁻¹ and 306000 M⁻¹ s⁻¹,B21
335 nM and 328 nM,,,B22
472 nM and 563 nM,0.169 s⁻¹ and 0.194 s⁻¹,357000 M⁻¹ s⁻¹ and 345000 M⁻¹ s⁻¹,B23
368 nM and 370 nM,0.894 s⁻¹ and 0.496 s⁻¹,2.43e+06 M⁻¹ s⁻¹ and 1.34e+06 M⁻¹ s⁻¹,B24
457 nM and 494 nM,0.237 s⁻¹ and 0.477 s⁻¹,518000 M⁻¹ s⁻¹ and 966000 M⁻¹ s⁻¹,B25
341 nM and 257 nM,,,B26
464 nM and 569 nM,0.196 s⁻¹ and 0.304 s⁻¹,422000 M⁻¹ s⁻¹ and 533000 M⁻¹ s⁻¹,B27
245 nM and 294 nM,,,B28
292 nM and 240 nM,,,B29
340 nM and 317 nM,,,B30

# Target: T1, canine FcRn (UniProtKB-E2ROL6 [FcRn] …)
# Test: SPR Biacore 8K, pH 5.5, Fc captured on BSA via SASA tag, FcRn 200 nM
# Remark: another data set of the same source
Kd,koff,kon,Binder
924 nM and 1050 nM,0.207 s⁻¹ and 0.209 s⁻¹,225000 M⁻¹ s⁻¹ and 199000 M⁻¹ s⁻¹,B31
107 nM and 159 nM,0.0524 s⁻¹ and 0.0633 s⁻¹,488000 M⁻¹ s⁻¹ and 399000 M⁻¹ s⁻¹,B10
40.4 nM and 75.7 nM,,,B13
15.9 nM,0.00968 s⁻¹,607000 M⁻¹ s⁻¹,B14
573 nM and 629 nM,0.156 s⁻¹ and 0.164 s⁻¹,272000 M⁻¹ s⁻¹ and 261000 M⁻¹ s⁻¹,B25
